Results taken from patent publication US20250250357A1 (NANJING ZAIMING PHARMACEUTICAL, published 2025).

Key:
[1] = target: T1, human MSLN-hFc protein (Acro, Cat. No. MSN-H5253) (human, UniProt Q13421 296-580); assay: ELISA, coated human MSLN-hFc, antibody 1 nM
T1 construct: bought protein; also called human MSLN full-length protein; not shown: human Fc (hFc) of the bought protein

[2] = target: T1, human MSLN-hFc protein (Acro, Cat. No. …); assay: ELISA, coated human MSLN-hFc, antibody 10 nM
[3] = target: T1, human MSLN-hFc protein (Acro, Cat. No. …); assay: ELISA, coated human MSLN-hFc, antibody 0.1 nM
[4] = target: T1, human MSLN-hFc protein (Acro, Cat. No. …); assay: ELISA, coated human MSLN-hFc, antibody 100 nM
[5] = target: T1, human MSLN-hFc protein (Acro, Cat. No. …); assay: ELISA, coated human MSLN-hFc, antibody 0.01 nM
[6] = target: T1, human MSLN-hFc protein (Acro, Cat. No. …); assay: ELISA, coated human MSLN-hFc, antibody 0.001 nM
[7] = target: T1, human MSLN-hFc protein (Acro, Cat. No. …); assay: ELISA, coated human MSLN-hFc, antibody 0.0001 nM
[8] = target: T1, human MSLN-hFc protein (Acro, Cat. No. …); assay: ELISA, coated human MSLN-hFc, antibody 1 nM; remark: listed apart in the source
[9] = target: T1, human MSLN-hFc protein (Acro, Cat. No. …); assay: ELISA, coated human MSLN-hFc, antibody 10 nM; remark: listed apart in the source
[10] = target: T1, human MSLN-hFc protein (Acro, Cat. No. …); assay: ELISA, coated human MSLN-hFc, antibody 0.1 nM; remark: listed apart in the source
[11] = target: T1, human MSLN-hFc protein (Acro, Cat. No. …); assay: ELISA, coated human MSLN-hFc, antibody 100 nM; remark: listed apart in the source
[12] = target: T1, human MSLN-hFc protein (Acro, Cat. No. …); assay: ELISA, coated human MSLN-hFc, antibody 0.01 nM; remark: listed apart in the source
[13] = target: T1, human MSLN-hFc protein (Acro, Cat. No. …); assay: ELISA, coated human MSLN-hFc, antibody 0.001 nM; remark: listed apart in the source
[14] = target: T1, human MSLN-hFc protein (Acro, Cat. No. …); assay: ELISA, coated human MSLN-hFc, antibody 0.0001 nM; remark: listed apart in the source

T1 sequence (Q13421 other isoform, or with tags, fused parts or gaps limits assumed): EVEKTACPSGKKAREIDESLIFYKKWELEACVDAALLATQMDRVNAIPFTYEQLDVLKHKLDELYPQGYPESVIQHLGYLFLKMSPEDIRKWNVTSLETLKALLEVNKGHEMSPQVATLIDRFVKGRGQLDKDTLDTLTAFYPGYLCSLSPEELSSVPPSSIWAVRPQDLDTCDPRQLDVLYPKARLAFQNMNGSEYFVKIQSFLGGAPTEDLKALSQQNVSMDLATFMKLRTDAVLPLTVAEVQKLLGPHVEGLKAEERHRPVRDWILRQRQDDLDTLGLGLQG

Row | OD450 nm [1] | OD450 nm [2] | OD450 nm [3] | OD450 nm [4] | OD450 nm [5] | OD450 nm [6] | OD450 nm [7] | OD450 nm [8] | OD450 nm [9] | OD450 nm [10] | OD450 nm [11] | OD450 nm [12] | OD450 nm [13] | OD450 nm [14] | Binder
1 | 0.55 | 1.23 | 0.17 | 1.68 | 0.07 | 0.06 | 0.06 |  |  |  |  |  |  |  | F2.39.3-H1 (scFv, not shown: small tags and cut ends, expressed as VH-(G4S)3-VL-his or VL-(G4S)3-VH-his; also called S009-F2.39.3 humanized VH1 + VL1) scFv: EVQLVQSGAEVKKPGASVKVSCKASGYTFTNYWMHWVRQAPGQGLEWMGNINPSSGDSYYNERFMSRVTMTVDKSTSTVYMELSSLRSEDTAVYYCARSGGLWLAFWGQGTLVTVSSGGGGSGGGGSGGGGSDIVMTQSPDSLAVSLGERATINCKSSQTLLNSVSQNNYLAWYQQKPGQSPKLLIYFASTRESGVPDRFSGSGSGTDFTLTISSLQAEDVAVYYCQQHYRTPYTFGGGTKVEIK
2 | 0.3 | 1.19 | 0.1 | 1.82 | 0.06 | 0.06 | 0.06 |  |  |  |  |  |  |  | F2.39.3-H2 (scFv, not shown: small tags and cut ends, also called S009-F2.39.3 humanized VH1 + VL2) scFv: EVQLVQSGAEVKKPGASVKVSCKASGYTFTNYWMHWVRQAPGQGLEWMGNINPSSGDSYYNERFMSRVTMTVDKSTSTVYMELSSLRSEDTAVYYCARSGGLWLAFWGQGTLVTVSSGGGGSGGGGSGGGGSDIVMTQSPDSLAVSLGERATINCKSSQTLLNSVSQNNYLAWYQQKPGQSPTLLIYFASTRESGVPDRFSGSGSGTDFTLTISSLQAEDVAVYYCQQHYRTPYTFGGGTKVEIK
3 | 0.39 | 1.22 | 0.11 | 1.81 | 0.06 | 0.06 | 0.05 |  |  |  |  |  |  |  | F2.39.3-H9 (scFv, not shown: small tags and cut ends, also called S009-F2.39.3 humanized VH3 + VL1) scFv: EVQLVQSGAEVKKPGASVKVSCKASGYTFTNYWMHWVRQAPGQGLEWMGNINPSSGDSYYNERFMSRVTMTVDKSTSTAYMELSSLRSEDTAVYYCARSGGLWLAFWGPGTLVTVSSGGGGSGGGGSGGGGSDIVMTQSPDSLAVSLGERATINCKSSQTLLNSVSQNNYLAWYQQKPGQSPKLLIYFASTRESGVPDRFSGSGSGTDFTLTISSLQAEDVAVYYCQQHYRTPYTFGGGTKVEIK
4 | 0.31 | 1.18 | 0.1 | 1.69 | 0.07 | 0.06 | 0.06 |  |  |  |  |  |  |  | F2.39.3-H6 (scFv, not shown: small tags and cut ends, also called S009-F2.39.3 humanized VH2 + VL2) scFv: EVQLVQSGAEVKKPGASVKVSCKASGYTFTNYWMHWVRQAPGQGLEWMGNINPSSGDSYYNERFMSRVTMTVDKSTSTAYMELSSLRSEDTAVYYCARSGGLWLAFWGQGTLVTVSSGGGGSGGGGSGGGGSDIVMTQSPDSLAVSLGERATINCKSSQTLLNSVSQNNYLAWYQQKPGQSPTLLIYFASTRESGVPDRFSGSGSGTDFTLTISSLQAEDVAVYYCQQHYRTPYTFGGGTKVEIK
5 |  |  |  |  |  |  |  | 0.22 | 0.83 | 0.09 | 1.37 | 0.07 | 0.06 | 0.06 | F2.23.12-H5 (scFv, not shown: small tags and cut ends, also called S009-F2.23.12 humanized VH2 + VL1) scFv: EVQLVQSGAEVKKPGASVKVSCKASGYTFTNYWMHWVRQAPGQGLEWMGNINPSNGGPYYNERFRSRVTMTVDKSTSTAYMELSSLRSEDTAVYYCARPYYGSSYGYFDYWGQGTTVTVSSGGGGSGGGGSGGGGSDIQMTQSPSSLSASVGDRVTITCKASQDINKYIAWYQQKPGKAPKLLIHYTSELQPGVPSRFSGSGSGTDFTFTISSLQPEDIATYYCLQYANPLRTFGGGTKVEIK
6 |  |  |  |  |  |  |  | 0.57 | 0.92 | 0.18 | 1.22 | 0.09 | 0.08 | 0.07 | F2.23.12-H4 (scFv, not shown: small tags and cut ends, also called S009-F2.23.12 humanized VH1 + VL4) scFv: EVQLVQSGAEVKKPGASVKVSCKASGYTFTNYWMHWVRQAPGQGLEWMGNINPSNGGPYYNERFRSRVTMTVDKSTSTVYMELSSLRSEDTAVYYCARPYYGSSYGYFDYWGQGTTVTVSSGGGGSGGGGSGGGGSDIQMTQSPSSLSASVGDRVTITCKASQDINKYIAWYQHKPGKAPKLLIHYTSELQPGVPSRFSGSGSGRDYTFTISSLQPEDIATYYCLQYANPLRTFGGGTKVEIK
7 |  |  |  |  |  |  |  | 0.17 | 0.62 | 0.09 | 1.22 | 0.07 | 0.07 | 0.05 | F2.23.12-H8 (scFv, not shown: small tags and cut ends, also called S009-F2.23.12 humanized VH2 + VL4) scFv: EVQLVQSGAEVKKPGASVKVSCKASGYTFTNYWMHWVRQAPGQGLEWMGNINPSNGGPYYNERFRSRVTMTVDKSTSTAYMELSSLRSEDTAVYYCARPYYGSSYGYFDYWGQGTTVTVSSGGGGSGGGGSGGGGSDIQMTQSPSSLSASVGDRVTITCKASQDINKYIAWYQHKPGKAPKLLIHYTSELQPGVPSRFSGSGSGRDYTFTISSLQPEDIATYYCLQYANPLRTFGGGTKVEIK
8 |  |  |  |  |  |  |  | 0.13 | 0.64 | 0.07 | 1.2 | 0.06 | 0.07 | 0.05 | F2.23.12-H16 (scFv, not shown: small tags and cut ends, also called S009-F2.23.12 humanized VH4 + VL4) scFv: EVQLVQSGAEVKKPGASVKVSCKASGYTFTNYWMHWVRQAPGQGLEWMGNINPSQGGPYYNERFRSRVTMTVDKSTSTAYMELSSLRSEDTAVYYCARPYYGSSYGYFDYWGQGTTVTVSSGGGGSGGGGSGGGGSDIQMTQSPSSLSASVGDRVTITCKASQDINKYIAWYQHKPGKAPKLLIHYTSELQPGVPSRFSGSGSGRDYTFTISSLQPEDIATYYCLQYANPLRTFGGGTKVEIK
9 |  |  |  |  |  |  |  | 0.16 | 0.73 | 0.08 | 1.38 | 0.07 | 0.07 | 0.05 | F2.23.12-H13 (scFv, not shown: small tags and cut ends, also called S009-F2.23.12 humanized VH4 + VL1) scFv: EVQLVQSGAEVKKPGASVKVSCKASGYTFTNYWMHWVRQAPGQGLEWMGNINPSQGGPYYNERFRSRVTMTVDKSTSTAYMELSSLRSEDTAVYYCARPYYGSSYGYFDYWGQGTTVTVSSGGGGSGGGGSGGGGSDIQMTQSPSSLSASVGDRVTITCKASQDINKYIAWYQQKPGKAPKLLIHYTSELQPGVPSRFSGSGSGTDFTFTISSLQPEDIATYYCLQYANPLRTFGGGTKVEIK
10 |  |  |  |  |  |  |  | 0.26 | 0.82 | 0.09 | 1.22 | 0.07 | 0.06 | 0.07 | F2.23.12-H1 (scFv, not shown: small tags and cut ends, also called S009-F2.23.12 humanized VH1 + VL1) scFv: EVQLVQSGAEVKKPGASVKVSCKASGYTFTNYWMHWVRQAPGQGLEWMGNINPSNGGPYYNERFRSRVTMTVDKSTSTVYMELSSLRSEDTAVYYCARPYYGSSYGYFDYWGQGTTVTVSSGGGGSGGGGSGGGGSDIQMTQSPSSLSASVGDRVTITCKASQDINKYIAWYQQKPGKAPKLLIHYTSELQPGVPSRFSGSGSGTDFTFTISSLQPEDIATYYCLQYANPLRTFGGGTKVEIK
11 | 0.31 | 1.17 | 0.1 | 1.95 | 0.06 | 0.06 | 0.05 |  |  |  |  |  |  |  | F2.39.3-H8 (scFv, not shown: small tags and cut ends, also called S009-F2.39.3 humanized VH2 + VL4) scFv: EVQLVQSGAEVKKPGASVKVSCKASGYTFTNYWMHWVRQAPGQGLEWMGNINPSSGDSYYNERFMSRVTMTVDKSTSTAYMELSSLRSEDTAVYYCARSGGLWLAFWGQGTLVTVSSGGGGSGGGGSGGGGSDIVMTQTPLSLSVTPGQPASISCKSSQTLLNSVSQNNYLAWYQQKPGQSPTLLVYFASTRESGVPDRFSGSGSGTDFTLKISRVEAEDVGVYYCQQHYRTPYTFGGGTKVEIK
